Experimental data: article PMC3104517 (Nature Communications, 2011)

B1: AnxA5 triple mutant R16E/K27E/K56E (natural protein, rat)
chain: ALRGTVTDFSGFDGEADAEVLRKAMEGLGTDEDSILNLLTARSNAQRQQIAEEFETLFGRDLVNDMKSELTGKFEKLIVALMKPSRLYDAYELKHALKGAGTDEKVLTEIIASRTPEELRAIKQAYEEEYGSNLEDDVVGDTSGYYQRMLVVLLQANRDPDTAIDDAQVELDAQALFQAGELKWGTDEEKFITILGTRSVSHLRRVFDKYMTISGFQIEETIDRETSGNLENLLLAVVKSIRSIPAYLAETLYYAMKGAGTDDHTLIRVIVSRSEIDLFNIRKEFRKNFATSLYSMIKGDTSGDYKKALLLLCGGEDD
B2: AnxA5 single mutant K27E (natural protein, rat)
chain: ALRGTVTDFSGFDGRADAEVLRKAMEGLGTDEDSILNLLTARSNAQRQQIAEEFKTLFGRDLVNDMKSELTGKFEKLIVALMKPSRLYDAYELKHALKGAGTDEKVLTEIIASRTPEELRAIKQAYEEEYGSNLEDDVVGDTSGYYQRMLVVLLQANRDPDTAIDDAQVELDAQALFQAGELKWGTDEEKFITILGTRSVSHLRRVFDKYMTISGFQIEETIDRETSGNLENLLLAVVKSIRSIPAYLAETLYYAMKGAGTDDHTLIRVIVSRSEIDLFNIRKEFRKNFATSLYSMIKGDTSGDYKKALLLLCGGEDD
B3: AnxA5 single mutant K191E (natural protein, rat)
chain: ALRGTVTDFSGFDGRADAEVLRKAMKGLGTDEDSILNLLTARSNAQRQQIAEEFKTLFGRDLVNDMKSELTGKFEKLIVALMKPSRLYDAYELKHALKGAGTDEKVLTEIIASRTPEELRAIKQAYEEEYGSNLEDDVVGDTSGYYQRMLVVLLQANRDPDTAIDDAQVELDAQALFQAGELKWGTDEEEFITILGTRSVSHLRRVFDKYMTISGFQIEETIDRETSGNLENLLLAVVKSIRSIPAYLAETLYYAMKGAGTDDHTLIRVIVSRSEIDLFNIRKEFRKNFATSLYSMIKGDTSGDYKKALLLLCGGEDD
B4: AnxA5 triple mutant R23E/K27E/K191E (natural protein, rat)
chain: ALRGTVTDFSGFDGRADAEVLEKAMEGLGTDEDSILNLLTARSNAQRQQIAEEFKTLFGRDLVNDMKSELTGKFEKLIVALMKPSRLYDAYELKHALKGAGTDEKVLTEIIASRTPEELRAIKQAYEEEYGSNLEDDVVGDTSGYYQRMLVVLLQANRDPDTAIDDAQVELDAQALFQAGELKWGTDEEEFITILGTRSVSHLRRVFDKYMTISGFQIEETIDRETSGNLENLLLAVVKSIRSIPAYLAETLYYAMKGAGTDDHTLIRVIVSRSEIDLFNIRKEFRKNFATSLYSMIKGDTSGDYKKALLLLCGGEDD
B5: AnxA5 triple mutant R16E/K27E/K191E (natural protein, rat)
chain: ALRGTVTDFSGFDGEADAEVLRKAMEGLGTDEDSILNLLTARSNAQRQQIAEEFKTLFGRDLVNDMKSELTGKFEKLIVALMKPSRLYDAYELKHALKGAGTDEKVLTEIIASRTPEELRAIKQAYEEEYGSNLEDDVVGDTSGYYQRMLVVLLQANRDPDTAIDDAQVELDAQALFQAGELKWGTDEEEFITILGTRSVSHLRRVFDKYMTISGFQIEETIDRETSGNLENLLLAVVKSIRSIPAYLAETLYYAMKGAGTDDHTLIRVIVSRSEIDLFNIRKEFRKNFATSLYSMIKGDTSGDYKKALLLLCGGEDD
B6: AnxA5 single mutant R23E (natural protein, rat)
chain: ALRGTVTDFSGFDGRADAEVLEKAMKGLGTDEDSILNLLTARSNAQRQQIAEEFKTLFGRDLVNDMKSELTGKFEKLIVALMKPSRLYDAYELKHALKGAGTDEKVLTEIIASRTPEELRAIKQAYEEEYGSNLEDDVVGDTSGYYQRMLVVLLQANRDPDTAIDDAQVELDAQALFQAGELKWGTDEEKFITILGTRSVSHLRRVFDKYMTISGFQIEETIDRETSGNLENLLLAVVKSIRSIPAYLAETLYYAMKGAGTDDHTLIRVIVSRSEIDLFNIRKEFRKNFATSLYSMIKGDTSGDYKKALLLLCGGEDD
B7: AnxA5 single mutant R16E (natural protein, rat)
chain: ALRGTVTDFSGFDGEADAEVLRKAMKGLGTDEDSILNLLTARSNAQRQQIAEEFKTLFGRDLVNDMKSELTGKFEKLIVALMKPSRLYDAYELKHALKGAGTDEKVLTEIIASRTPEELRAIKQAYEEEYGSNLEDDVVGDTSGYYQRMLVVLLQANRDPDTAIDDAQVELDAQALFQAGELKWGTDEEKFITILGTRSVSHLRRVFDKYMTISGFQIEETIDRETSGNLENLLLAVVKSIRSIPAYLAETLYYAMKGAGTDDHTLIRVIVSRSEIDLFNIRKEFRKNFATSLYSMIKGDTSGDYKKALLLLCGGEDD
B8: AnxA5 double mutant K27E/K191E (natural protein, rat)
chain: ALRGTVTDFSGFDGRADAEVLRKAMEGLGTDEDSILNLLTARSNAQRQQIAEEFKTLFGRDLVNDMKSELTGKFEKLIVALMKPSRLYDAYELKHALKGAGTDEKVLTEIIASRTPEELRAIKQAYEEEYGSNLEDDVVGDTSGYYQRMLVVLLQANRDPDTAIDDAQVELDAQALFQAGELKWGTDEEEFITILGTRSVSHLRRVFDKYMTISGFQIEETIDRETSGNLENLLLAVVKSIRSIPAYLAETLYYAMKGAGTDDHTLIRVIVSRSEIDLFNIRKEFRKNFATSLYSMIKGDTSGDYKKALLLLCGGEDD
B9: AnxA5 single mutant K56E (natural protein, rat)
chain: ALRGTVTDFSGFDGRADAEVLRKAMKGLGTDEDSILNLLTARSNAQRQQIAEEFETLFGRDLVNDMKSELTGKFEKLIVALMKPSRLYDAYELKHALKGAGTDEKVLTEIIASRTPEELRAIKQAYEEEYGSNLEDDVVGDTSGYYQRMLVVLLQANRDPDTAIDDAQVELDAQALFQAGELKWGTDEEKFITILGTRSVSHLRRVFDKYMTISGFQIEETIDRETSGNLENLLLAVVKSIRSIPAYLAETLYYAMKGAGTDDHTLIRVIVSRSEIDLFNIRKEFRKNFATSLYSMIKGDTSGDYKKALLLLCGGEDD

Target: the molecule itself
Experiment: 2D crystallisation on lipid monolayers, negative-stain TEM

Binding result, binds:
B1
B2
B3
B4
B5
B6
B7
B8
B9
